Source: the RNAGym collection of RNA variant scans (doi:10.1073/pnas.2313332121)

B1: TPR t1 (parent)
chain: GACCAAUCUGCCCUCAGAGCUCGAGAACAUCUUCGGAUGCAGAGGAGGCAGGCUUCGGUGGCGCGAUAGCGCCAACGUCCUCAACCUCCAAUGCAUCCCACCACAUGAUGAUGCCUGAAGAGCCUUGGUUUUUUG

Variants of: B1
Experiment: polymerase ribozyme fitness, log enrichment relative to wild type (log ratio); higher = more active; in vitro selection for triplet polymerase activity
How it was run: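 Streptavidin-bead capture of gel-excised extended constructs, followed by RT-PCR, closed a single triplicate in vitro selection round. That round began by annealing PCR-built, transcribed mutant libraries of each subunit of a heterodimeric triplet polymerase ribozyme with a biotinylated primer, the partner subunit and triplets, then incubating them frozen at −7 °C. After Illumina sequencing of inputs and outputs, genotypes needed ≥10 input reads and ≥1 read per output. Fitness is the base-2 logarithm of genotype enrichment over wild-type enrichment, using inverse-variance-weighted replicate averages.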
With A37U C70A the “polymerase ribozyme fitness (log ratio)” value was -1.11. In the case of A37U C56G U87G, the “polymerase ribozyme fitness (log ratio)” value is reported as -1.26. With G36A C72G U92A the “polymerase ribozyme fitness (log ratio)” value was -5.43. With G36A G71U U106A the “polymerase ribozyme fitness (log ratio)” value was -1.11. In the case of C34G C72U U109A A119U C123U, the “polymerase ribozyme fitness (log ratio)” value is reported as -8.4. In the case of G36A A66U C88A C104G G113A C123G C124A, the “polymerase ribozyme fitness (log ratio)” value is reported as -5.59. In the case of G36C U54G G61U, the “polymerase ribozyme fitness (log ratio)” value is reported as -5.87. With G36A A46U G47C C56U U106A the “polymerase ribozyme fitness (log ratio)” value was -3.75. For G35U G69A U81C G113U, the “polymerase ribozyme fitness (log ratio)” value was -6.53. In the case of A37G U81G A84C, the “polymerase ribozyme fitness (log ratio)” value is reported as -5.14. With C34U G36U G61A C97G A119G the “polymerase ribozyme fitness (log ratio)” value was -3.91. For A37C A46G G61U C64U, the “polymerase ribozyme fitness (log ratio)” value was -5.42. In the case of G36U G120C, the “polymerase ribozyme fitness (log ratio)” value is reported as 0.124. In the case of G36U G120U, the “polymerase ribozyme fitness (log ratio)” value is reported as 0.153. For G36A C64G C104G G110A G127U, the “polymerase ribozyme fitness (log ratio)” value was -6.24. With G36U U59A A90G C97G U106C the “polymerase ribozyme fitness (log ratio)” value was -1.98. In the case of A37C A41G C53A C88U, the “polymerase ribozyme fitness (log ratio)” value is reported as -0.41. With A37C A68G the “polymerase ribozyme fitness (log ratio)” value was -2.51. For G35U G39U C72U A75U A103U, the “polymerase ribozyme fitness (log ratio)” value was -8.04. With A37U A74C C102A C104U the “polymerase ribozyme fitness (log ratio)” value was -2.41. With G35A C86G the “polymerase ribozyme fitness (log ratio)” value was -5.03. With G35A C99G U133G the “polymerase ribozyme fitness (log ratio)” value was -5.8. In the case of A37C G61U U109A, the “polymerase ribozyme fitness (log ratio)” value is reported as -5.9. In the case of A37G C64A, the “polymerase ribozyme fitness (log ratio)” value is reported as -6.74. With C34G G63U the “polymerase ribozyme fitness (log ratio)” value was -8.24. For C34G G63A, the “polymerase ribozyme fitness (log ratio)” value was -7.1. In the case of G36A C62A C89U A95C C114U, the “polymerase ribozyme fitness (log ratio)” value is reported as -6.66. In the case of G35A G47A G57U, the “polymerase ribozyme fitness (log ratio)” value is reported as -3.97. For G36A G110U A121U, the “polymerase ribozyme fitness (log ratio)” value was -2.05. With A37C U54G G57A the “polymerase ribozyme fitness (log ratio)” value was -1.35. In the case of G36A G48U C56U U112A G117U G120U G127C U133A, the “polymerase ribozyme fitness (log ratio)” value is reported as -6.88. In the case of G36A A37G C72U G122A, the “polymerase ribozyme fitness (log ratio)” value is reported as -1.5. With C34G C79A A91C C97U C99U A100C C101U G113C U130A the “polymerase ribozyme fitness (log ratio)” value was -6.71. For G36C G51C C70U U87A C94U C123U, the “polymerase ribozyme fitness (log ratio)” value was -5.76. For G36A G44U C70U A111C, the “polymerase ribozyme fitness (log ratio)” value was -2.48. For C34G G36U C72U U96C G127C U130G, the “polymerase ribozyme fitness (log ratio)” value was -6.19. For C34U C88G, the “polymerase ribozyme fitness (log ratio)” value was -3.99. With G35U G45A U81A C89A G120A the “polymerase ribozyme fitness (log ratio)” value was -4.73. For A37C G45A A83C A100U G113C, the “polymerase ribozyme fitness (log ratio)” value was -4.29. For G36U U38C C72A C115G A118U C124G U131C, the “polymerase ribozyme fitness (log ratio)” value was -5.85. For A37G C70U, the “polymerase ribozyme fitness (log ratio)” value was -0.719. For C34U A41G C53U G69U, the “polymerase ribozyme fitness (log ratio)” value was -2.44. For G36A A46C G61A A90C A118C, the “polymerase ribozyme fitness (log ratio)” value was -6.53. With G35A G63C G71U C114A the “polymerase ribozyme fitness (log ratio)” value was -6.69. With A37C C56G U125A the “polymerase ribozyme fitness (log ratio)” value was -1.58. For G36C C53A C115U U116G, the “polymerase ribozyme fitness (log ratio)” value was -4.36. With C34U C53U G61U G120A U132A the “polymerase ribozyme fitness (log ratio)” value was -3.26. In the case of A37U C53G U116A, the “polymerase ribozyme fitness (log ratio)” value is reported as -3.56. In the case of A37G C40U, the “polymerase ribozyme fitness (log ratio)” value is reported as -1.48. With G36U C40G U78G C97A U112G the “polymerase ribozyme fitness (log ratio)” value was -1.61. With G35U G58A C115U the “polymerase ribozyme fitness (log ratio)” value was -7.02. For A37G C115U, the “polymerase ribozyme fitness (log ratio)” value was -0.85. With G36A U54G the “polymerase ribozyme fitness (log ratio)” value was -1.04. For A37G C72U C88G C104U G113A, the “polymerase ribozyme fitness (log ratio)” value was -4.89. With G36U U54G G69A the “polymerase ribozyme fitness (log ratio)” value was -5.06. With G36U A46C A50U A84U the “polymerase ribozyme fitness (log ratio)” value was -5.6. For C34A G71U A75G, the “polymerase ribozyme fitness (log ratio)” value was -4.12. For A37C G44A A50U G120U, the “polymerase ribozyme fitness (log ratio)” value was -3.3. In the case of A37G C104U G113A U130G, the “polymerase ribozyme fitness (log ratio)” value is reported as -1.23. In the case of G35A G45C G71C G77C C104U C114G, the “polymerase ribozyme fitness (log ratio)” value is reported as -5.08. For C34A G58C, the “polymerase ribozyme fitness (log ratio)” value was -2.18. With C34A C94U A121G U125A U129A the “polymerase ribozyme fitness (log ratio)” value was -3. With C34G A108G the “polymerase ribozyme fitness (log ratio)” value was -6.09. In the case of A37C G61A C73U, the “polymerase ribozyme fitness (log ratio)” value is reported as -0.816. In the case of G35A C101U C115A, the “polymerase ribozyme fitness (log ratio)” value is reported as -3.56. In the case of C34A C101U C104U U133A, the “polymerase ribozyme fitness (log ratio)” value is reported as -1.95. With G36C C86A the “polymerase ribozyme fitness (log ratio)” value was -1.45. With G36C C86U the “polymerase ribozyme fitness (log ratio)” value was -1.65. In the case of C34A C123A U132C, the “polymerase ribozyme fitness (log ratio)” value is reported as -2.13. For C34U A37C G60C C124A, the “polymerase ribozyme fitness (log ratio)” value was -3.79. For A37G C98U, the “polymerase ribozyme fitness (log ratio)” value was -1.79. For A37U A43G G60A, the “polymerase ribozyme fitness (log ratio)” value was -2.78. For G36U G60A G113A, the “polymerase ribozyme fitness (log ratio)” value was -1.62. With C34G G120A the “polymerase ribozyme fitness (log ratio)” value was -5.16. With A37U A74C A83U G117U the “polymerase ribozyme fitness (log ratio)” value was -3.26. In the case of G36U C85A C104A, the “polymerase ribozyme fitness (log ratio)” value is reported as -3.96. For A37G U78A C82G A119U, the “polymerase ribozyme fitness (log ratio)” value was -0.542. With C34U G122U the “polymerase ribozyme fitness (log ratio)” value was -3.58. For A37C G48U A108U G120C, the “polymerase ribozyme fitness (log ratio)” value was -5.53. In the case of C34A G71U U92A C114G, the “polymerase ribozyme fitness (log ratio)” value is reported as -7.83. In the case of G36A A43C C115A, the “polymerase ribozyme fitness (log ratio)” value is reported as -3.76. In the case of G35C C124A, the “polymerase ribozyme fitness (log ratio)” value is reported as -2.66. With C34U U54A G61A the “polymerase ribozyme fitness (log ratio)” value was -4.4. In the case of A37C G42U C88A A111G, the “polymerase ribozyme fitness (log ratio)” value is reported as -4.05.
